Target: T1, his-tagged F110A variant of human ferrochelatase (FECH), recombinant from E. coli (human, UniProt P22830 55-423, F110A)
T1 sequence (looked up): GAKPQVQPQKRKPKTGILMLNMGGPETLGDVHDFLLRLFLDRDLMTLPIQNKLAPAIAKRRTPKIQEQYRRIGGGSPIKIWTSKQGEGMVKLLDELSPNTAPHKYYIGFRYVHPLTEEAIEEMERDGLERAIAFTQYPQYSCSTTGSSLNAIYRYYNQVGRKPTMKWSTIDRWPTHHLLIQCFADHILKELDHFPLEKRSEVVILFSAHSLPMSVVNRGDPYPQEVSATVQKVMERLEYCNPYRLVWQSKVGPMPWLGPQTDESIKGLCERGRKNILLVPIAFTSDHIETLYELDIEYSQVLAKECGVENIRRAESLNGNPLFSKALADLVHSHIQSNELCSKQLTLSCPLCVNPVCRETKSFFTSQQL
Experiment: pull-down

B1: non-tagged full length human PGRMC1, recombinant from E. coli (natural protein)
chain: not shown
  fold of PGRMC1 recovered (against wild-type FECH): > 2 fold
